Experimental data from patent US20240141059A1 (Bristol-Myers Squibb, published 2024).
Where “and” joins values, the source holds several entries; their conditions need not be identical. Equal values may be shown once.

How the values were obtained:
[1] = target: T1, purified human-CD40 monomer (human, UniProt P25942 21-193, limits assumed); assay: SPR, dAb-Fc on protein A, hCD40monomer analyte; second set
T1 construct: Soluble analyte; also called hCD40monomer

[2] = target: T2, hCD40-Fc (human, UniProt P25942 21-193); assay: SPR, hCD40-Fc immobilized, dAb-Fc analyte, avidity
T2 construct: Immobilized on the sensor chip; not shown: Fc part of hCD40-Fc not described

[3] = target: T3, N-hCD73-his (human, UniProt P21589 26-336, limits assumed); assay: SPR, mAb captured on protein A
T3 construct: monomeric in solution by SEC-MALS; also called N-terminal domain of hCD73
T3 sequence (looked up): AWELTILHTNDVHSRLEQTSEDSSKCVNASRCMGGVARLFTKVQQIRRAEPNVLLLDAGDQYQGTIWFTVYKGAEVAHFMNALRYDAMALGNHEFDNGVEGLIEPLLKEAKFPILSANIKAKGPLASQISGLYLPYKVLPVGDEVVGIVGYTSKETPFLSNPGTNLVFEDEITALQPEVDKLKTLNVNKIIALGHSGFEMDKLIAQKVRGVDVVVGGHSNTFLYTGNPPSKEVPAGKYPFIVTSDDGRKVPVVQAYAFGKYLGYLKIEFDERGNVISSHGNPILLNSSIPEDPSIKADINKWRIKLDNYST
Protocol: The affinity of the antibodies for human CD73 was measured to determine whether the change of the constant region affects them. The affinities were determined by Surface Plasmon Resonance (SPR) as follows. […] For these experiments, protein A (Pierce) was immobilized to a density of 3000-4000 RU on flow cells 1˜4 of a CMS sensor chip (GE Healthcare) using standard ethyl(dimethylaminopropyl) carbodiimide (EDC)/N-hydroxysuccinimide (NHS) chemistry, with ethanolamine blocking, in a running buffer of 0.01 M HEPES pH 7.4, 0.15 M NaCl, 3 mM EDTA, 0.005% v/v tween 20. […] The running buffer for the kinetic experiments was 10 mM sodium phosphate, 130 mM sodium chloride, 0.05% tween 20, pH 7.1. The surfaces were regenerated after each cycle using two 30 s pulses of 10 mM glycine pH 1.5 at a flow rate of 30 μl/min. Sensogram data was double-referenced and then fitted to a 1:1 Langmuir model using Biacore® T100 evaluation software v2.0.4, to determine the association rate constant (ka), the dissociation rate constant (kd), and the equilibrium dissociation constant (KD).

[4] = target: T4, human CD73 on cells (human, UniProt P21589 27-549); assay: cell-based or functional assay
T4 sequence (looked up): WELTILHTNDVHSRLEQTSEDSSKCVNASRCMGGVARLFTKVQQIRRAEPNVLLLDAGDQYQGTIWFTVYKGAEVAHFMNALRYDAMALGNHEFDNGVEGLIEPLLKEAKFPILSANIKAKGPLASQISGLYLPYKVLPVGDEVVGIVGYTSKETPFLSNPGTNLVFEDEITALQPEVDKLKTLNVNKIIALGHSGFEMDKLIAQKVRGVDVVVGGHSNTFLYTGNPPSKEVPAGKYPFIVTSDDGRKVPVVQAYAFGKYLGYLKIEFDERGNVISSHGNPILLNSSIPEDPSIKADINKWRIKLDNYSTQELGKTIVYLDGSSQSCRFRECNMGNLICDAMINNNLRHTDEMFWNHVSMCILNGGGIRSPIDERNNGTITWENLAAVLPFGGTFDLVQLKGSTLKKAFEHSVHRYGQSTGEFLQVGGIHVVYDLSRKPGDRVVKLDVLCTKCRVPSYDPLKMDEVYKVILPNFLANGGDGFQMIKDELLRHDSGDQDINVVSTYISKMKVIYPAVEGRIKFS

[5] = target: T5, hCD73-his (human, UniProt P21589 26-546); assay: DLS, target:mAb 1:1, 2.5 uM + 2.5 uM; unit from the text
T5 construct: range 26-546; also called full length extracellular domain of human-CD73
T5 sequence (looked up): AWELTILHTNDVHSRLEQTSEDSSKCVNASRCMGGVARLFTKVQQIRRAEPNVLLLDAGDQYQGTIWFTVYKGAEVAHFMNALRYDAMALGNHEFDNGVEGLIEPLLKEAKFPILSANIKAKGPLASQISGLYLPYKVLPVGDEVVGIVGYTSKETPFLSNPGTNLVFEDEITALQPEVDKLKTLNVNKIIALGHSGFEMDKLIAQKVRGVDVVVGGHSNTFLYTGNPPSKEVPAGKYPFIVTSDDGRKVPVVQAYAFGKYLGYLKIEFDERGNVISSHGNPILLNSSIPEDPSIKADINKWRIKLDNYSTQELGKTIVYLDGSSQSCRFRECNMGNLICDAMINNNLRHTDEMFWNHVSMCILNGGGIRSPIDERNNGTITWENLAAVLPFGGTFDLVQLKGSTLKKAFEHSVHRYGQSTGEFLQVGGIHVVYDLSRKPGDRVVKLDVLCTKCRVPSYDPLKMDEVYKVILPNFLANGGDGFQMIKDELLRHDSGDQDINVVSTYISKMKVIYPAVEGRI
Protocol: (§1) The structure and oligomeric state of CD73/antibody complexes in solution were examined by SEC-MALS and DLS.
(§2) Dynamic light scattering (DLS) studies were performed on a Wyatt DynaPro® plate reader in 384 well plates at 25° C. Experimental parameters were 20 acquisitions of 5 s each per measurement, and measurements were recorded in quadruplicate, with the average and standard deviation reported. Intensity autocorrelation functions were fitted using the “Regularization” algorithm in the Dynamics® software (Wyatt Technologies®).

[6] = target: T4, human CD73 on cells; assay: cell-based or functional assay; remark: listed apart in the source
[7] = target: T5, hCD73-his; assay: DLS, target:mAb 1:1, 4 uM + 4 uM; unit from the text
Protocol: as §1, §2

[8] = target: T5, hCD73-his; assay: SEC-MALS, target:mAb 1:1, 2.5 uM + 2.5 uM
Protocol: as §1
(§3) The oligomeric state of CD73/antibody complexes were examined by size-exclusion chromatography coupled to an in-line multi-angle light scattering detector (SEC-MALS). Isocratic separations were performed on a Shodex PROTEIN KW-803 column connected to an Prominence Shimadzu UFLC in buffer containing 200 mM K₂HPO₄, 150 mM NaCl, pH 6.8, containing 0.02% Na azide (0.1 μm filtered) running at 0.5 mL/min. Samples were injected onto the column using a SIL-20AC Prominence Shimadzu® autosampler, and data were obtained from three online detectors connected in series: a Prominence SPD-20AD diode array UV/vis spectrophotometer followed by a Wyatt miniDAWN™ TREOS Multi-Angle Light Scattering Detector then a Wyatt Optilab T-rEX Refractive Index Detector® instrument. Data were collected and analyzed using Astra® (Wyatt) and Labsolutions® (Shimadzu) software.

[9] = target: T5, hCD73-his; assay: SEC-MALS, target:mAb 1:1, 4 uM + 4 uM
Protocol: as §1, §3

[10] = target: T3, N-hCD73-his; assay: DLS, target:mAb 2:1, 8 uM + 4 uM; unit from the text
Protocol: as §1, §2

[11] = target: T3, N-hCD73-his; assay: SEC-MALS, target:mAb 2:1, 8 uM + 4 uM
Protocol: as §1, §3

[12] = target: T6, human GITR on cells (human, UniProt Q9Y5U5 26-241); assay: cell-based or functional assay
T6 sequence (looked up): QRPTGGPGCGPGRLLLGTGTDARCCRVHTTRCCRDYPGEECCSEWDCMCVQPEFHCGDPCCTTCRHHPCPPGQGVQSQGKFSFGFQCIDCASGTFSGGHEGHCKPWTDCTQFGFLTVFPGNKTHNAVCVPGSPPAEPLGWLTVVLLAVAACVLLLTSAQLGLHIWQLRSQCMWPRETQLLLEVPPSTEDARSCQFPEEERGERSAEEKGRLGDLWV

T1 sequence (P25942 21-193 limits assumed): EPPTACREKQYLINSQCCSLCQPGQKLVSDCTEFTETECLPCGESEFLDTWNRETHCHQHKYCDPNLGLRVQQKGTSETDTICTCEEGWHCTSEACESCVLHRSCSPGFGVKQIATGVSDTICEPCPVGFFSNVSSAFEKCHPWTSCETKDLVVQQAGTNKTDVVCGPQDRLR
T2 sequence (P25942 21-193): as the sequence (P25942 21-193 limits assumed) above

B1: 3h56-269-IgG1.3f (Fc fusion)
chain: EVQLLESGGGLVQPGGSLRLSCAASGFTFRDYEMWWVRQAPGKGLERVSAINPQGTRTYYADSVKGRFTISRDNSKNTLYLQMNSLRAEDTAVYYCAKLPFRFSDRGQGTLVTVSSASTEPKSCDKTHTCPPCPAPEAEGAPSVFLFPPKPKDTLMISRTPEVTCVVVDVSHEDPEVKFNWYVDGVEVHNAKTKPREEQYNSTYRVVSVLTVLHQDWLNGKEYKCKVSNKALPAPIEKTISKAKGQPREPQVYTLPPSREEMTKNQVSLTCLVKGFYPSDIAVEWESNGQPENNYKTTPPVLDSDGSFFLYSKLTVDKSRWQQGNVFSCSVMHEALHNHYTQKSLSLSPGK
notes: dAb-Fc fusion protein
In the case of B1, the Kd [1] is reported as 9.8 nM, the koff [1] is reported as 0.00011 s⁻¹ and the kon [1] is reported as 11000 M⁻¹ s⁻¹. The KDapparent [2] was less than 1 nM.

B2: 3h56-269-IgG1.1f (Fc fusion)
chain: EVQLLESGGGLVQPGGSLRLSCAASGFTFRDYEMWWVRQAPGKGLERVSAINPQGTRTYYADSVKGRFTISRDNSKNTLYLQMNSLRAEDTAVYYCAKLPFRFSDRGQGTLVTVSSASTEPKSCDKTHTCPPCPAPEAEGAPSVFLFPPKPKDTLMISRTPEVTCVVVDVSHEDPEVKFNWYVDGVEVHNAKTKPREEQYNSTYRVVSVLTVLHQDWLNGKEYKCKVSNKALPSSIEKTISKAKGQPREPQVYTLPPSREEMTKNQVSLTCLVKGFYPSDIAVEWESNGQPENNYKTTPPVLDSDGSFFLYSKLTVDKSRWQQGNVFSCSVMHEALHNHYTQKSLSLSPGK
notes: dAb-Fc fusion protein
In the case of B2, the KDapparent [2] is reported as less than 1 nM.

B3: CD73.10-IgG2-C219S (antibody)
heavy: QVQLVESGGGVVQPGRSLRLSCAASGFTFSNYGMHWVRQAPGKGLEWVAVIWYDESNKYYPDSVKGRFTISRDNSKNTLYLQMNSLRAEDTAVYYCARGGSSWYPDSFDIWGQGTMVTVSSASTKGPSVFPLAPCSRSTSESTAALGCLVKDYFPEPVTVSWNSGALTSGVHTFPAVLQSSGLYSLSSVVTVPSSNFGTQTYTCNVDHKPSNTKVDKTVERKSCVECPPCPAPPVAGPSVFLFPPKPKDTLMISRTPEVTCVVVDVSHEDPEVQFNWYVDGVEVHNAKTKPREEQFNSTFRVVSVLTVVHQDWLNGKEYKCKVSNKGLPAPIEKTISKTKGQPREPQVYTLPPSREEMTKNQVSLTCLVKGFYPSDIAVEWESNGQPENNYKTTPPMLDSDGSFFLYSKLTVDKSRWQQGNVFSCSVMHEALHNHYTQKSLSLSPG
light: not shown
notes: also called CD73.10-IgG2CS; CD73.10-Vh-hHC-IgG2-C219S
For B3, the Kd [3] was 6.2 nM and 8.3 nM, the koff [3] was 0.0014 s⁻¹ and 0.0018 s⁻¹ and the kon [3] was 220000 M⁻¹ s⁻¹. For the same binder, the “internalization EC50, Calu6 cells, 2 h” value [4] was 0.67 nM, the “internalization Ymax (% of 100 nM 11F11), Calu6 cells” value [4] was 99% and the Rh [5] was 23.9 nm. The “% internalization, Calu6 cells” value [6] was 91%, the “% internalization, H228 cells” value [6] was 93% and the “% internalization, H2030 cells” value [6] was 85%. For the same binder, the “% internalization, HCC15 cells” value [6] was 91%, the “internalization T1/2, Calu6 cells” value [6] was 3 min and the “internalization T1/2, H228 cells” value [6] was 9.7 min. For the same binder, the “internalization T1/2, H2030 cells” value [6] was 3.3 min, the “internalization T1/2, HCC15 cells” value [6] was 2.6 min and the Rh [7] was 2.9 nm. The “MW Peak 1” value [8] was 2200 kDa, the “MW Peak 2” value [8] was 310 kDa and the “MW Peak 2” value [9] was 3400 kDa. The Rh [10] was 6.5 nm, the “MW Peak 1” value [11] was 210 kDa and the “MW Peak 2” value [11] was 150 kDa.

B4: anti-GITR-IgG2 (antibody)
heavy: QVQLVESGGGVVQPGRSLRLSCAASGFTFSSYGMHWVRQAPGKGLEWVAVIWYEGSNKYYADSVKGRFTISRDNSKNTLYLQMNSLRAEDTAVYYCARGGSMVRGDYYYGMDVWGQGTTVTVSSASTKGPSVFPLAPCSRSTSESTAALGCLVKDYFPEPVTVSWNSGALTSGVHTFPAVLQSSGLYSLSSVVTVPSSNFGTQTYTCNVDHKPSNTKVDKTVERKCCVECPPCPAPPVAGPSVFLFPPKPKDTLMISRTPEVTCVVVDVSHEDPEVQFNWYVDGVEVHNAKTKPREEQFNSTFRVVSVLTVVHQDWLNGKEYKCKVSNKGLPAPIEKTISKTKGQPREPQVYTLPPSREEMTKNQVSLTCLVKGFYPSDIAVEWESNGQPENNYKTTPPMLDSDGSFFLYSKLTVDKSRWQQGNVFSCSVMHEALHNHYTQKSLSLSPGK
light: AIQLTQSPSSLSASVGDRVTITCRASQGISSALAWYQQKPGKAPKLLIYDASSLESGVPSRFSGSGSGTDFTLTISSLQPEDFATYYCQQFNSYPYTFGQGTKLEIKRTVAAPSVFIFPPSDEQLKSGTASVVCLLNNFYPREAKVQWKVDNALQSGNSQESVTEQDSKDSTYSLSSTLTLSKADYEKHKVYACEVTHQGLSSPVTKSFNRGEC
B4 was tested, and the “NFKB signaling EC50” value [12] was roughly 10 nM.
